Laboratory results taken from PMC8040287, “Characterization of two enzymes from Psychrobacter cryohalolentis that are required for the biosynthesis of an unusual diacetamido-D-sugar” (The Journal of Biological Chemistry, 2021).

Key:
Pcryo_0638 = molecular target: T1, Pcryo_0638 (Psychrobacter cryohalolentis, UniProt Q1QD32); assay: X-ray crystal structure, […] Å; type: binding; settings: pH 8.0
T1 construct: full length; N-terminal His tag removed with rTEV; expressed in E. coli Rosetta2(DE3); dimer; residues Ala 5 to Asn 399 seen in crystal
T1 sequence (Q1QD32 1-400): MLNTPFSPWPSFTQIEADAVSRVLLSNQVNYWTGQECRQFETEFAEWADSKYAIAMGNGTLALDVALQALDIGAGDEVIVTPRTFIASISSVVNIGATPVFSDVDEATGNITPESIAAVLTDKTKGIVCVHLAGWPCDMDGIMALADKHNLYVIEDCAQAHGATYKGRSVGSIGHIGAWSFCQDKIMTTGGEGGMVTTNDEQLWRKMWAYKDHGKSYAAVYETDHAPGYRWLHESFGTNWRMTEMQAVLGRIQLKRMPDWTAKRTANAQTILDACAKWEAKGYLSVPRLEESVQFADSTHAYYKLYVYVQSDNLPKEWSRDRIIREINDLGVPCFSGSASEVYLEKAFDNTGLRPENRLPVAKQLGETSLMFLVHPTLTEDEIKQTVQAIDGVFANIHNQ

[1] = molecular target: Pcryo_0637, N-acetyltransferase from Psychrobacter cryohalolentis K5T, C-terminally His-tagged form used for crystallization (Psychrobacter cryohalolentis K5T (ATCC BAA-1226)) (UniProt Q1QD33); assay: crystal structure; hanging drop, room temperature, 23-26% 2-methyl-2,4-pentanediol, 100 mM HEPES pH 7.5, with CoA or acetyl-CoA and UDP or UDP-sugar ligands (four complexes); space group R3, one subunit in the asymmetric unit, trimer formed about the crystallographic triad; 1.3-1.55 Å
[2] = molecular target: the molecule itself; assay: crystal structure; hanging drop, room temperature, 18-22% PEG 8000, 200 mM tetramethylammonium chloride, 100 mM HEPPS pH 8.0, with 1 mM PLP and 5 mM UDP-2-acetamido-4-amino-2,4,6-trideoxy-D-glucose; space group P1, one dimer in the asymmetric unit; 1.3 Å
purified protein = substrate: CC(=O)N[C@H]1[C@@H](OP(=O)(O)OP(=O)(O)OC[C@H]2O[C@@H](n3ccc(=O)[nH]c3=O)[C@H](O)[C@@H]2O)O[C@H](C)C(=O)[C@@H]1O; assay: purified protein; type: biochemical, Psychrobacter cryohalolentis; settings: 50 mM HEPPS pH 8.0, 0.5 mM PLP, 40 mM sodium glutamate
[3] = substrate: CC(=O)N[C@H]1[C@@H](OP(=O)(O)OP(=O)(O)OC[C@H]2O[C@@H](n3ccc(=O)[nH]c3=O)[C@H](O)[C@@H]2O)O[C@H](C)[C@@H](N)[C@@H]1O; assay: discontinuous HPLC assay of acetylated product, Michaelis-Menten fit; type: biochemical, Psychrobacter cryohalolentis; settings: 50 mM HEPPS pH 8.0, 1.5 mM acetyl-CoA, structure with CoA solved on C-terminally tagged protein
Description: (§1) discontinuous HPLC assay of acetylated product, Michaelis-Menten fit on Pcryo_0637

[4] = substrate: CC(=O)SCCNC(=O)CCNC(=O)[C@H](O)C(C)(C)COP(=O)(O)OP(=O)(O)OC[C@H]1O[C@@H](n2cnc3c(N)ncnc32)[C@H](O)[C@@H]1OP(=O)(O)O; assay: as above; type: biochemical, Psychrobacter cryohalolentis; settings: 50 mM HEPPS pH 8.0, 8 mM UDP-2-acetamido-4-amino-2,4,6-trideoxy-D-glucose, structure with UDP solved on C-terminally tagged protein
Description: as §1

For Cc1ncc(COP(=O)(O)O)c(C=O)c1O [PLP], the “X-ray crystal structure, 1.3 Å” value (Pcryo_0638; covalent, external aldimine with the aminosugar product, half-occupancy) was “a mixture of the external aldimine and PMP was subsequently built into the electron density”.

In the case of “Pcryo_0637, N-acetyltransferase from Psychrobacter cryohalolentis K5T, C-terminally His-tagged form used for crystallization (from UniProt Q1QD33 1-219) (enzyme)”, the stoichiometry N [1] is reported as 3.

Cc1ncc(COP(=O)(O)O)c(CN)c1O [PMP] was tested, and the “X-ray crystal structure, 1.3 Å” value (Pcryo_0638; half-occupancy beside the external aldimine) was “a mixture of the external aldimine and PMP was subsequently built into the electron density”.

B1: Pcryo_0638, PLP-dependent aminotransferase from Psychrobacter cryohalolentis K5T (enzyme)
chain: T1 sequence (Q1QD32 1-400)
notes: Pcryo_0638, aminotransferase encoded by gene 0638 of Psychrobacter cryohalolentis K5T (ATCC BAA-1226); electron density continuous from Ala 5 to Asn 399; also called protein encoded by the 0638 gene; Pyro_0638; source: E. coli Rosetta2(DE3), purified (Ni-NTA, tag removed with rTEV protease); not shown: polyhistidine tag, N-terminal, cleaved
In the case of B1, the “stoichiometry N” value [2] is reported as 2, the Km (purified protein) is reported as 290 ± 40 µM and the kcat (purified protein) is reported as 1.9 ± 0.2 s⁻¹. For the same molecule, the kcat/Km (purified protein) was 6600 ± 700 M⁻¹ s⁻¹.

B2: Pcryo_0637 (Psychrobacter cryohalolentis K5) (protein)
chain: MSKVFAVYGASGCGRSLMPVANEQLRILEGDTDSQIVFIDDALDDNITVNGYTAMNYTKFKSIKNDDKFVLIAIANSSIRQKIADKLVKDGISLWTVQGMTTLIMDEVSIDAGAALSPFVTIAANVTIGKCFHANLYSYVEHDCIIGDYVTFAPRVSCNGNIHIHDHAYIGTGAVIKQGTPDKPLIIGKGAIVGMGAVVTKEVPAGAVVIGNPARLLNK
notes: full length; kinetics with N-terminal His tag removed by rTEV; crystals with noncleavable C-terminal tag LEHHHHHH; expressed in E. coli Rosetta2(DE3); trimer; domains Ser 2-Ser 93 and Leu 94-Ala 218
With B2 the Km [3] was 620 ± 50 µM, the kcat [3] was 545 ± 40 s⁻¹ and the kcat/Km [3] was 880000 ± 90000 M⁻¹ s⁻¹. For the same molecule, the Km [4] was 70 ± 8 µM, the kcat [4] was 1900 ± 200 s⁻¹ and the kcat/Km [4] was 2.7e+07 ± 3e+06 M⁻¹ s⁻¹.
